One test has as its target T1, human LGR7 (Homo sapiens, UniProt Q9HBX9).
T1 sequence (Q9HBX9 1-757): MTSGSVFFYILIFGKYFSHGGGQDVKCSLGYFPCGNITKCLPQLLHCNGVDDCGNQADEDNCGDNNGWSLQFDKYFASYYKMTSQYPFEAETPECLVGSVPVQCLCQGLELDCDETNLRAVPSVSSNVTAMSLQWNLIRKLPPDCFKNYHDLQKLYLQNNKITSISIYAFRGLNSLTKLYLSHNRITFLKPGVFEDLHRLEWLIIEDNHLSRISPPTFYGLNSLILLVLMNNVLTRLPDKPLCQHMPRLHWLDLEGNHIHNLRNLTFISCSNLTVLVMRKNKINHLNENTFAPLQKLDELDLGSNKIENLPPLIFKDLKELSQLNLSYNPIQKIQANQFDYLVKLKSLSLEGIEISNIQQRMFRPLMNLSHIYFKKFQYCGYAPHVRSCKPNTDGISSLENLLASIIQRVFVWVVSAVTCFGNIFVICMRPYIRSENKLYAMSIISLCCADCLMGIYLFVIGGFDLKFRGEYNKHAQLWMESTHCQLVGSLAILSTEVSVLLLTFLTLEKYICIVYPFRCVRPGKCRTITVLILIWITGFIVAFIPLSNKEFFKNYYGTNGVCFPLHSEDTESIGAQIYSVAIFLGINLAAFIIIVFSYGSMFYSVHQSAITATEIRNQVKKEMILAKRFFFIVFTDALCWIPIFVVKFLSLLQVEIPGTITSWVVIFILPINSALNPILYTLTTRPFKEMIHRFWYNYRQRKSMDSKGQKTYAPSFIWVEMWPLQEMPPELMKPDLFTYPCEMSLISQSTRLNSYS
The test can be described thus: Radioligand binding assay, 125I-relaxin-2 tracer, COS-7 cells expressing LGR7. Further details: expressed in transfected cells. The text has this: (§1) COS-7 cells in 24-well tissue culture plates transiently expressing GPCR135, GPCR142 or LGR7 were used in radioligand binding assays as described by Liu et al., 2005a, J. Biol. Chem., 280:292-300. ^125I-Relaxin-3/INSL5 (^125I-R3/I5), a radiolabeled chimeric peptide with the human relaxin-3 B-chain and the human INSL5 A-chain (Liu et al., 2005b), was used at a final concentration of 50 pM as the tracer to characterize the binding properties of all truncated relaxin-3 peptides for GPCR135 and GPCR142. ^125I-relaxin-2 (PerkinElmer Biosciences, Boston) was used at a final concentration of 50 pM to characterize the binding properties of the truncated peptides for the relaxin receptor (LGR7). The results were analyzed by GraphPad Prism 4.0 software (Graphpad, San Diego). The IC50 values, which are the ligand concentrations that inhibited 50% of the maximum specific binding, were then calculated.

For a further test, the target named is human GPCR142 (Homo sapiens, UniProt Q8TDU9). In words: Radioligand binding assay, 125I-R3/I5 tracer, COS-7 cells expressing GPCR142. More on the design: expressed in transfected cells; host or cells: COS-7.
human GPCR142, sequence (Q8TDU9 whole entry): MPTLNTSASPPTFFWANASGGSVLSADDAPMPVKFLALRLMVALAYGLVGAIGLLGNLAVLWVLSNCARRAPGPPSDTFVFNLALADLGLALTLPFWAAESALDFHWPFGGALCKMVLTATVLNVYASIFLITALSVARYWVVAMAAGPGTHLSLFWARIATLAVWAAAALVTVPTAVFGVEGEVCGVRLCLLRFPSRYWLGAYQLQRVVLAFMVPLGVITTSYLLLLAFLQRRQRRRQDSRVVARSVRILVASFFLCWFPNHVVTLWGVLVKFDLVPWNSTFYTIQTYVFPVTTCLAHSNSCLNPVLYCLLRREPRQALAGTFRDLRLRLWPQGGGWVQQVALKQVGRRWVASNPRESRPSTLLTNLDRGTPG
Source text: as §1

Another test deals with T2, human GPCR135 (Homo sapiens, UniProt Q9NSD7).
T2 sequence (Q9NSD7 1-469): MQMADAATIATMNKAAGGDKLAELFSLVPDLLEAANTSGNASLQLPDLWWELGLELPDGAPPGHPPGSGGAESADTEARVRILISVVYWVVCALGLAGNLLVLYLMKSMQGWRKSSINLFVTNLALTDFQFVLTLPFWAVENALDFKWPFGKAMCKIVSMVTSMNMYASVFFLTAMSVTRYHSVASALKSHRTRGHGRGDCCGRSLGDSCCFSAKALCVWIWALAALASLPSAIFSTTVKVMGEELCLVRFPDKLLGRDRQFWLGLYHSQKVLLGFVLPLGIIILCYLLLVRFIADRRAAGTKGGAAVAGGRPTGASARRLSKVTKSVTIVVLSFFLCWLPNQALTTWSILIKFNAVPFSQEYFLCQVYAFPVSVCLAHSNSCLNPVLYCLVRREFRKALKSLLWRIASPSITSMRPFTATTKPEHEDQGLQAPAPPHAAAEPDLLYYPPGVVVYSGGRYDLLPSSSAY
The test can be described thus: Radioligand binding assay, 125I-R3/I5 tracer, COS-7 cells expressing GPCR135. Further details: expressed in transfected cells; host or cells: COS-7.
Source text: as §1

As for “R3(BΔ23-27)R: Relaxin-3 mutant: B-chain SEQ ID NO:15 (Gly23-Trp27 deleted plus C-terminal Arg), relaxin-3 A-chain SEQ ID NO:13”, the “affinity of human LGR7” value with human LGR7 is “low affinity”. Moreover, the “affinity of human GPCR142” value with human GPCR142 is recorded as “high affinities”. Besides, the “affinity of human GPCR135” value with human GPCR135 is “high affinities”.

The values are drawn from patent publication US8299028B2, “Chimeric peptide antagonist for GPCR135 or GPCR142” (Janssen Pharmaceutica NV, priority 2007, dated 2012).
